{"source": "patent US20050074809A1", "about": "“System and method for systematic prediction of ligand/receptor activity” (priority 2001, published 2005)", "origin": "cited, not measured here", "key": {"HLA-A*0201 molecule": {"target": "HLA-A*0201 molecule (Homo sapiens, UniProt P04439, D140Y/D185E/D98H/E176V/E277Q/G131W/G231S/I119V/I121R/I166T/I218V/L300P/L318F/N151K/N90K/P208A/P217A/Q86G/Q94H/R138H/R169H/T345S)", "conditions": "result in words; Kawakami and Rosenberg 1996"}, "HLA-DRB1*0101 molecule": {"target": "HLA-DRB1*0101 molecule (Homo sapiens, UniProt P01903+P01911, A100R/D57E/F55L/F60I/F76Y/I96L/L162R/M171V/P40L/Q125E/R42F/V115G/Y59C)", "conditions": "result in words; reported binding data"}}, "data": [{"sequence": "PLWGPRALV [Peptide of the mage-3 antigen (SWISSPROT:MAG3_HUMAN)]", "values": [{"measurement": "binding to HLA-A*0201", "setting": "HLA-A*0201 molecule", "value": "binds"}]}, {"sequence": "PKPPKPVSKMRMATPLLMQALPMG [Peptide of class II invariant chain (SwissProt Acc. P04233)]", "values": [{"measurement": "binding to HLA-DR1(0101) (HLA-DRB1*0101)", "setting": "HLA-DRB1*0101 molecule", "value": "binds"}]}, {"sequence": "FAGKNTDLE", "values": [{"measurement": "binding to HLA-DR1(0101) (HLA-DRB1*0101)", "setting": "HLA-DRB1*0101 molecule", "value": "does not bind"}]}]}
